# According to the supplement of paper PMC7877785:
# ± gives the uncertainty stated by the source.
# Test: self-splicing fitness, log relative to wild type (ln ratio); higher = more splicing; Tetrahymena group I intron in knt gene, E. coli kanamycin selection, DiMSum; sequences stand for … in CUCUCU…GGAGGGAAAAGUUAUCAGGCAUGCACCUGGUAGCUAGUCUUUAAACCAAUAGAUUGCAUCGGUUUAAAAGGCAAGACCGUCAAAUUGCGGGAAAGGGGUCAACAGCCGUUCAGUACCAAGUCUCAGGGGAAACUUUGAGAUGGCCUUGCAAAGGGUAUGGUAAUAAGCUGACGGACAUGGUCCUAACCACGCAGCCAAGUCCUAAGUCAACAGAUCUUCUGUUGAUAUGGAUGCAGUUCACAGACUAAAUGUCGGUCGGGGAAGAUGUAUUCUUCUCAUAAGAUAUAGUCGGACCUCUCCUUAAUGGGAGCUAGCGGAUGAAGUGAUGCAACACUGGAGCCGCUGGGAACUAAUUUGUAUGCGAAAGUAUAUUGAUUAGUUUUGGAGUACUCGUGGUCG
# Outline: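 Six replicate transformations of E. coli BL21(DE3) with a pET-22b(+) library were grown overnight at 37°C or 30°C. The library randomised all eight P1ex-region intron nucleotides, the intron lying in the knt kanamycin-resistance gene, and plates were LB agar with or without 25 μg/mL kanamycin plus 100 μg/mL carbenicillin, 50 μM IPTG and 0.2% rhamnose. Pooled colonies were amplicon-sequenced on an Illumina HiSeq 2500, and fitness is the DiMSum error-weighted combination of wild-type-normalised replicate fold changes, kanamycin versus none.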
Sequence,self-splicing fitness (ln) (30 °C),self-splicing fitness (ln) (37 °C)
GCCCAGCAAUAUUACGUGGU,-4 ± 0.18,-1.9 ± 0.14
GCCCAGCAAUAUUACGUUAC,-2.2 ± 0.083,-0.962 ± 0.087
GCCGAGCAAUAUUACGAAAC,-2.15 ± 0.22,-1.13 ± 0.17
GCCGAGCAAUAUUACGAGCU,-2.84 ± 0.26,-3.15 ± 0.33
GCCGAGCAAUAUUACGAUAU,-2.51 ± 0.12,-1.46 ± 0.11
GCCGAGCAAUAUUACGAUGC,-0.994 ± 0.088,-0.352 ± 0.096
GCCGAGCAAUAUUACGCAGG,-3.43 ± 0.25,-4.04 ± 0.42
GCCGAGCAAUAUUACGCCAC,-2.11 ± 0.34,
GCCGAGCAAUAUUACGCCCC,-1.58 ± 0.37,
GCCGAGCAAUAUUACGCGCG,-2.53 ± 0.25,
GCCGAGCAAUAUUACGCUCG,-2.94 ± 0.27,-2.02 ± 0.26
GCCGAGCAAUAUUACGCUUA,-1.21 ± 0.072,-0.233 ± 0.089
GCCGAGCAAUAUUACGGAAU,-1.1 ± 0.09,-0.698 ± 0.11
GCCGAGCAAUAUUACGGAGU,-2.42 ± 0.18,-1.56 ± 0.12
GCCGAGCAAUAUUACGGAUC,-0.703 ± 0.074,-0.376 ± 0.11
GCCGAGCAAUAUUACGGUCG,-3.63 ± 0.21,
GCCGAGCAAUAUUACGGUCU,-2.23 ± 0.13,-2.26 ± 0.24
GCCGAGCAAUAUUACGGUUA,-0.775 ± 0.071,-0.0707 ± 0.07
GCCGAGCAAUAUUACGGUUU,-2.38 ± 0.098,-0.815 ± 0.095
GCCGAGCAAUAUUACGUAAA,-2.41 ± 0.14,-1.36 ± 0.17
GCCGAGCAAUAUUACGUACU,-2.15 ± 0.17,-1.23 ± 0.18
GCCGAGCAAUAUUACGUCAA,,-2.36 ± 0.33
GCCGAGCAAUAUUACGUCAC,,-1.57 ± 0.24
GCCGAGCAAUAUUACGUCCU,-2.96 ± 0.14,-0.795 ± 0.13
GCCUAGCAAUAUUACGAAAG,-4.21 ± 0.24,-1.07 ± 0.18

Sequence,self-splicing fitness (ln) (30 °C),self-splicing fitness (ln) (37 °C)
GCCUAGCAAUAUUACGAAGU,-0.618 ± 0.1,-0.808 ± 0.12
GCCUAGCAAUAUUACGAGAU,-1.88 ± 0.12,-0.45 ± 0.11
GCCUAGCAAUAUUACGAGCG,-1.38 ± 0.1,0.0723 ± 0.13
GCCUAGCAAUAUUACGAGGA,-0.444 ± 0.06,-0.065 ± 0.067
GCCUAGCAAUAUUACGAGUA,-1.7 ± 0.093,-1.88 ± 0.085
GCCUAGCAAUAUUACGAGUU,-1.58 ± 0.061,-0.309 ± 0.078
GCCUAGCAAUAUUACGAUGC,-1.01 ± 0.081,0.0478 ± 0.13
GCCUAGCAAUAUUACGAUUG,-2.49 ± 0.23,-2.32 ± 0.26
GCCUAGCAAUAUUACGCACC,-0.962 ± 0.26,-0.41 ± 0.21
GCCUAGCAAUAUUACGCAGA,-3.96 ± 0.33,-2.06 ± 0.23
GCCUAGCAAUAUUACGCAUA,-0.13 ± 0.18,-0.428 ± 0.15
GCCUAGCAAUAUUACGCCCC,-0.575 ± 0.27,0.517 ± 0.49
GCCUAGCAAUAUUACGCGGU,-4.03 ± 0.28,-3 ± 0.26
GCCUAGCAAUAUUACGCGUC,-1.92 ± 0.15,-0.202 ± 0.12
GCCUAGCAAUAUUACGGAUU,-0.548 ± 0.085,0.334 ± 0.091
GCCUAGCAAUAUUACGGCUC,-1.99 ± 0.15,-0.272 ± 0.17
GCCUAGCAAUAUUACGGUCC,-3.85 ± 0.33,-1.66 ± 0.24
GCCUAGCAAUAUUACGUAAC,-0.911 ± 0.17,-0.248 ± 0.2
GCCUAGCAAUAUUACGUAGA,-1.73 ± 0.16,0.22 ± 0.13
GCCUAGCAAUAUUACGUAUC,-1.26 ± 0.076,-0.501 ± 0.094
GCCUAGCAAUAUUACGUCCG,-3 ± 0.42,-2.03 ± 0.26
GCCUAGCAAUAUUACGUCUU,-1.54 ± 0.098,-1.68 ± 0.11
GCCUAGCAAUAUUACGUGAC,-1.12 ± 0.17,0.101 ± 0.17
GCCUAGCAAUAUUACGUUAC,-2.72 ± 0.2,-1.49 ± 0.18
GCCUAGCAAUAUUACGUUAU,-1.52 ± 0.12,-0.39 ± 0.14

Sequence,self-splicing fitness (ln) (30 °C),self-splicing fitness (ln) (37 °C)
GCGAAGCAAUAUUACGAAAC,-1.86 ± 0.35,-0.819 ± 0.44
GCGAAGCAAUAUUACGAAGG,-0.597 ± 0.23,-0.295 ± 0.3
GCGAAGCAAUAUUACGAAUG,-1.95 ± 0.15,-0.756 ± 0.17
GCGAAGCAAUAUUACGAUGG,-2.12 ± 0.13,-0.641 ± 0.14
GCGAAGCAAUAUUACGAUUC,-1.46 ± 0.097,-0.598 ± 0.13
GCGAAGCAAUAUUACGCCCG,-2.36 ± 0.31,-1.68 ± 0.48
GCGAAGCAAUAUUACGCCGA,,-1.78 ± 0.35
GCGAAGCAAUAUUACGCGAC,-1.88 ± 0.17,-1.1 ± 0.19
GCGAAGCAAUAUUACGCGAG,-2.08 ± 0.22,-3.24 ± 0.3
GCGAAGCAAUAUUACGCGAU,-2.49 ± 0.44,-1.74 ± 0.47
GCGAAGCAAUAUUACGCGCG,-2.34 ± 0.17,-1.28 ± 0.22
GCGAAGCAAUAUUACGCGCU,-1.85 ± 0.24,-1.48 ± 0.4
GCGAAGCAAUAUUACGCGGC,-3.23 ± 0.22,-2.35 ± 0.25
GCGAAGCAAUAUUACGGGAA,-3.48 ± 0.43,-2.68 ± 0.33
GCGAAGCAAUAUUACGGGCG,-1.84 ± 0.11,-0.509 ± 0.13
GCGAAGCAAUAUUACGGGCU,-2.68 ± 0.19,-1.88 ± 0.17
GCGAAGCAAUAUUACGGGGC,-3.1 ± 0.24,-1.82 ± 0.23
GCGAAGCAAUAUUACGUAAG,-2.04 ± 0.11,-1.41 ± 0.13
GCGAAGCAAUAUUACGUAGG,-1.32 ± 0.092,-1.43 ± 0.13
GCGAAGCAAUAUUACGUCUA,-1.16 ± 0.1,-1.3 ± 0.093
GCGAAGCAAUAUUACGUGAU,-2.53 ± 0.092,-0.973 ± 0.098
GCGAAGCAAUAUUACGUGCG,-2.31 ± 0.16,-1.5 ± 0.18
GCGAAGCAAUAUUACGUGGG,-3.87 ± 0.24,-2.67 ± 0.26
GCGAAGCAAUAUUACGUGUU,-2.52 ± 0.11,-2.07 ± 0.11
GCGCAGCAAUAUUACGAAAC,-0.473 ± 0.16,-0.354 ± 0.19

Sequence,self-splicing fitness (ln) (30 °C),self-splicing fitness (ln) (37 °C)
GCGCAGCAAUAUUACGACCG,-1.37 ± 0.18,-0.215 ± 0.21
GCGCAGCAAUAUUACGAUUU,-1.07 ± 0.094,0.585 ± 0.11
GCGCAGCAAUAUUACGCAGU,-2.63 ± 0.31,-1.04 ± 0.29
GCGCAGCAAUAUUACGCAUG,-3.37 ± 0.28,-3.3 ± 0.33
GCGCAGCAAUAUUACGCGUG,-1.93 ± 0.11,-1.36 ± 0.13
GCGCAGCAAUAUUACGCUCC,-0.982 ± 0.34,-1.01 ± 0.45
GCGCAGCAAUAUUACGGCAU,-0.756 ± 0.075,0.684 ± 0.11
GCGCAGCAAUAUUACGGUAC,-1.22 ± 0.082,0.195 ± 0.095
GCGCAGCAAUAUUACGGUCC,-1.22 ± 0.12,0.23 ± 0.17
GCGCAGCAAUAUUACGGUUA,-1.11 ± 0.084,-0.631 ± 0.08
GCGCAGCAAUAUUACGUCAC,-4.04 ± 0.17,-1.65 ± 0.11
GCGCAGCAAUAUUACGUGGG,-2.53 ± 0.1,-1.6 ± 0.11
GCGCAGCAAUAUUACGUUCU,-0.657 ± 0.093,0.0134 ± 0.11
GCGGAGCAAUAUUACGAAUA,,-3.02 ± 0.4
GCGGAGCAAUAUUACGACAG,-3.33 ± 0.5,-1.09 ± 0.45
GCGGAGCAAUAUUACGACGC,,-2.45 ± 0.21
GCGGAGCAAUAUUACGAGCA,,-0.82 ± 0.4
GCGGAGCAAUAUUACGAUUG,-3.31 ± 0.19,-2.23 ± 0.24
GCGGAGCAAUAUUACGCAAC,-2.35 ± 0.48,
GCGGAGCAAUAUUACGCAUU,-2.8 ± 0.39,
GCGGAGCAAUAUUACGCGAG,,-2.39 ± 0.36
GCGGAGCAAUAUUACGCGUG,-2.56 ± 0.29,-1.85 ± 0.29
GCGGAGCAAUAUUACGCUUG,-3.14 ± 0.24,-1.06 ± 0.2
GCGGAGCAAUAUUACGGAAG,,-2.11 ± 0.36
GCGGAGCAAUAUUACGGCUA,,-1.81 ± 0.39
